The source of these data is paper PMC12594171, “DKK3-LRP1 complex and a chemical inhibitor regulate Aβ clearance in models of Alzheimer’s disease” (Science Advances, 2025).

The experiment has as its target mLRPIV-HA, stably expressed in SH-SY5Y. Kind of experiment: co-IP + ELISA; SH-SY5Y cells stably expressing mLRPIV-HA incubated with Aβ42 and 1 to 200 nM DKK1 or DKK3; mLRPIV-HA precipitated with anti-HA affinity gel; Aβ42 in the eluate by ELISA. For orientation: ELISA stands for enzyme-linked immunosorbent assay.

B1: DKK1-Flag (ligand)
chain: TLNSVLNSNAIKNLPPPLGGAAGHPGSAVSAAPGILYPGGNKYQTIDNYQPYPCAEDEECGTDEYCASPTRGGDAGVQICLACRKRRKRCMRHAMCCPGNYCKNGICVSSDQNHFRGEIEETITESFGNDHSTLDGYSRRTTLSSKMYHTKGQEGSVCLRSSDCASGLCCARHFWSKICKPVLKEGQVCTKHRRKGSHGLEIFQRCYCGEGLSCRIQKDHHQASNSSRLHTCQRH
For B1, the percent reduction of Aβ42 binding to mLRPIV at 20 nM DKK1 came to 44%.
